The DeepSol protein solubility set

assay: soluble on expression in E. coli; label from the status in PepcDB or PDB records

Row | Sequence | soluble on expression in E. coli
1 | MSLSNDISILFVEDDKEVRAQISDFLTSNMFKDVYVANNGKDGLLKYNIHKPDIVLSDLNMPIMDGLEMSRAIKALDENTPILLITSNFEKNVTEAAVDIGIEGCLFKPLSLNRVEKILTKYIEKIMFQREFKNKQKLLEQYKSIIDISSSVTKTDINGIITYVNNPFCDMSGYSKDELLGKNHTIISHPDNSKEFYEEIYSTLRDKKIWRGHIKNRRKNGDSYYESSVIAPILDENDEIVECISLKQDITELYAEGHHHHHH | soluble
2 | MITPDLESGVKVWHLVKNHDHGDQKEGDRGSKMVSEIYLTRLLATKGTLQKFVDDLFETLFSTVHRGSALPLAIKYMFDFLDEQADRHSIHDTDVRHTWKSNCLPLRFWVNVIKNPQFVFDIHKGSITDACLSVVAQTFMDSCSTSEHRLGKDSPSNKLLYAKDIPSYKNWVERYYADIAKLPAISDQDMNAYLAEQSRLHATEFNMLSALNEIYSYVSKYSEELIGALEQDEQARRQRLAYKVEHLINAMSIES | not soluble
3 | MSLAQFTTNPQRFDPYKNFKFRIKWGADYVAGVSKISGLKRTTEVVKHREGGDPSSSRKSPGRTEYEAITMERGVTHDVAFEQWANKVWNYGSGLGKEVSLADFRKDLVIEVYNEAGQAAMRYKVFRCWVSEFQSMSDLDANGNAVLIQHLKLETEGWERDYDLVEPKEGTFTEPAEGHHHHHH | soluble
4 | MGSDKIHHHHHHMAYIIPSDISAAALAGAHGPELETLAGLKTALSSDYTVYHGVHWSYDYRGQIRFGEADFVVVNQAGEMVVIEQKNGRLEDTAEGLIKVYGNTRKDVQSQVRRSVENIREKMRAASGSPPPSIDYLIYCPDHRLVRLNAVGLDVSRIVSGATPADLAGRIRQILPPGSKGGATENVHAFLRDAFQVVADVHAHVKAHERSYTRLIGGIADIVDSIEMAPLRLRLRGAPGSGKTVVAHRLYERALARGRRPLMVCFNHPLAERLAASVSPGGRVTTWHGLCVNFLAERGLKPNFEDAARNRSFWPDLAELIIAEPVPDAWRFDTLIVDEGQDFEPGWIDILHLFLTDAADIVWLEDPAQELRGIGRNELPGFVGLSVRTNYRTPQSIARFVKRALGADFVAANDLPGLGVGVSTYGLEDEQAVHLSRIVPALVRQGFAPDQIVIVTLKGATTSVLSQMTRIGTHEVSHFTGAYGDDGRQVRSRGLIRFESVQRFKGQQAPAVIVVDVNPASDPNKAERHLRQLFSAFTRATIRLEILAQKDNPMTARLLGSL | not soluble
5 | MAQNLPTIALLATGGTIAGSGVDASLGSYKSGELGVKELLKAIPSLNKIARIQGEQVSNIGSQDMNEEIWFKLAQRAQELLDDSRIQGVVITHGTDTLEESAYFLNLVLHSTKPVVLVGAMRNASSLSADGALNLYEAVSVAVNEKSANKGVLVVMDDTIFSVREVVKTHTTHVSTFKALNSGAIGSVYYGKTRYYMQPLRKHTTESEFSLSQLKTPLPKVDIIYTHAGMTPDLFQASLNSHAKGVVIAGVGNGNVSAGFLKAMQEASQMGVVIVRSSRVGSGGVTSGEIDDKAYGFITSDNLNPQKARVLLQLALTKTNDKAKIQEMFEEY | soluble
6 | MNEQVHARLKALARPMTGEEYLESLRDGREVYFMGERVKDVTTHPAFRNTARMFARWYDRLHELHKEDLERSKDPSGWKWTVPTESGNGWTHPFFVGPRSAEDLLKARDTIAELQRTVYGWGGRSPDYKAAFVGTLGPNAEFYAPYQENARRWYKETQEKLLYWNHAIVNPPVDRHKPVEEVGDVYMHVERETDAGIVVSGAKVVATGSAFTHVNFIAHYGPLPIKDKKFALIFVVPMDAKGVKLISRASYEFIAAKTGSPFDYPLSSRLDENDAILVFDNVLVPWENVFVYGDVEKVNAFFPLSGFVHRFPFQGCTRLAVKLDFIAGLTMKALDVTGASQFRGVQARLGEILTYRNLFWALTEAMARDPMPWVDGYVLPNLWAGLTYRVLAPEVYPKIKDIIERDLASALIYLPSHAKDFQNPQIRRYLDQYVRGNGVDAVTRVKIMKALWDAVGTEFGGRHELYERNYAGNHENIRIEVLGAMEAAGVNEALRAFVDKFLGEYDLEGWKVPDLINPTEA | soluble
7 | MPICTRLTAQIVKVAVNQPVAIRSSMWAKNNQNIHFMNLHVKKLEKLLLF | not soluble
